Data taken from the supplement of paper PMC12042874.
± gives the uncertainty stated by the source.

Experiment: amyloid nucleation score (Sup35N fusion, yeast selection) (log enrichment); library NNK3; higher = more nucleation; inactive = no reads after selection
Outline: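 For the nucleation score, DiMSum gave the log enrichment of output over input reads, centred on the mode score of non-aggregating sequences. Psi-negative yeast expressing Sup35N fused to peptides of 20 random codons were induced with 100 μM copper sulfate for 24 hours and grown 7 days at 30°C on medium lacking adenine and uracil. Input and output plasmid inserts were Illumina-sequenced, and sequences with under 100 input reads were excluded.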

Substance | amyloid nucleation score
PRLKFASYVMEMPLKFGEGI | inactive
PRLLRVSAIKSGRCPKGKKS | inactive
PRLTFSVVVRFCIHTLCLLK | inactive
PRNFVANPVELNKGKDFIPS | inactive
PRRSERYFCFF | 0.443 ± 0.23
PRRTNRVNKSISSVLSLRIG | 0.517 ± 0.57
PRTCMATSGPSGGHKSLFGF | inactive
PSGVTSCLKEWDSRDHGHRH | inactive
PSLRLQTTDILHKNSNY | inactive
PSSLKCKLAI | inactive
PSSLKYSKRVLSVSIHWERL | inactive
PSVTLQHSGIATWSILDRTL | 0.316 ± 0.26
PTAFCNSSQYV | inactive
PTAKRM | inactive
PTGGKKVGIASTFSLSVGTV | -0.08 ± 0.27
PTGSFMLLET | inactive
PTLCNRGLACDEHSHR | inactive
PTRNYCLLVKDY | inactive
PTSFLVYRMKRWFRASMSSR | inactive
PTSFYPVQRPPRFCAGHFRS | inactive
PTTCSNFSAYWNVCDPHNIS | inactive
PVEPI | inactive
PVFQLNNFTYMRVPCLRGLN | inactive
PVHSMASQLPYNNNTTKCLV | inactive

Substance | amyloid nucleation score
PVLSYMRMSI | inactive
PVPLAMYFYVALIYFDWW | inactive
PVQACRCKSH | inactive
PVVTVHAWHRFNMHL | inactive
PVYERPRCQNFLGCYWSCAQ | inactive
PWCLNWVITDDCRFYCGLRV | inactive
PWGPW | inactive
PWIGVNINSSVLVMVFGGGM | 1.97 ± 0.079
PWMHLYRHAMFISAHLRYSC | inactive
PWRLIAALACVYTWPLGLRG | inactive
PYAPVWKRGRNYFTNSFLYM | inactive
PYFTDAFVNEMDMQCH | inactive
QANFYPN | inactive
QARKDDDKAQNKCSR | inactive
QAYAS | -0.099 ± 0.96
QCEAGSGIIAVLHY | inactive
QDLMRTEHFNYS | inactive
QDNVKVVGAVGFYDILNGVE | inactive
QEIRTVTGALTDTWIVFICR | inactive
QFCSI | inactive
QFFCFNRLWDWVTFRVIDMS | inactive
QFGSWD | inactive
QFKLHCYRGMVVNHSLMCDT | inactive
QFMNKIIMCLGSF | -0.263 ± 0.58

Substance | amyloid nucleation score
QFPSFANIIANCPLGFLWYA | inactive
QFYGLHMAFGKQVNALYTGH | inactive
QGISQPRHCFY | inactive
QGKCDSELRAAAMDI | inactive
QGLSCDFRVLLLIYRSCGRG | inactive
QGSLVKFS | inactive
QGSMLRHY | inactive
QGYLRKYPVTGICVIYECDG | inactive
QHKKKIAF | inactive
QHNSK | inactive
QHWWSYWMFSGKRQCVVFPV | inactive
QIFLCTGFCR | 2.69 ± 0.062
QILGTQAGYYCSREGFANL | inactive
QILLFSFRVLFAGYRKIAST | inactive
QIPSGVVCGMNGYCLGAVTR | inactive
QIVRYASSQCDCRNFLSTVE | inactive
QKHNSIFMLAVCCYKSCKQ | 1.07 ± 0.084
QLCFGVMLRCSCCGKQVWEK | 1.84 ± 0.1
QLCLCRKATLMSPTRLLQRA | -0.41 ± 1.9
QLHRENEVVRYVF | inactive
QLKSVRACGRRGPLSQ | inactive
QLLVF | -1.23 ± 1.9
QLRASA | inactive
QLVFYHVDLHILPFWSAI | 2.15 ± 0.081

Substance | amyloid nucleation score
QLWNWVFYYISNILGKGMHL | inactive
QMRTWSKIYICTKPFL | 1.07 ± 0.1
QPVTRLFFISGSRGDLVEKH | inactive
QRAMYCKSLMSF | inactive
QRDHMGFSGDLW | inactive
QRFPKCI | inactive
QRFYILPRQCNALKGIITSL | inactive
QRLVINDMMPLFFWHSNMGD | inactive
QRVSFCIEVIGFQ | -0.042 ± 0.98
QRYTFIIIGTGWTGYYRHTP | -0.156 ± 0.41
QSEALNNFWVGSILSYMVLG | inactive
QSKFFGQWFLRQND | 0.299 ± 0.21
QSKSYFTL | inactive
QSPRRRMQSDIWS | inactive
QSSCGIMQPYRQWMPYSTYG | inactive
QSSKDTWRCASDKYERSGKR | inactive
QSSLLSTVNGVFKSDTRVRV | inactive
QSTGCLYSYLLANVGKSSGK | inactive
QSYVFVVLTPWVSRCGIGLA | inactive
QTGLVMWQLTFTYPLHVWNM | inactive
QTNLGPFVPSYGCFLCWMEG | inactive
QTSMVVDDYCILYVLHWGWG | inactive
QTVKHIKICGVCWVSMLMF | 2.07 ± 0.086
QVILKNMGPNIVSYGLG | inactive

Substance | amyloid nucleation score
QVLFAYIYLSLVNVSQG | 1.03 ± 0.14
QVNKFCYCMVDKLVVVH | 2.27 ± 0.074
QVTLWFKKNLSELM | inactive
QWCCVTRFIGYSKGYGRKAP | inactive
QWFRKLFYLTSLEDAPQIPR | inactive
QWIVDFCNCTWEVVRVLRFC | inactive
QWSNCDMASAYYAYRNLNAD | inactive
QWVSLGLVGVGQ | inactive
QYDIVLCGQWYGLSKGLRYS | inactive
QYFPDIY | inactive
QYVYLCRYLNMRPACYDMVV | -0.329 ± 0.8
RACARVLLEVCFLFEFSMST | inactive
RACYLF | inactive
RAFFDTSCGMSLDPSLIPTG | inactive
RAFFLVIAIFNKVEVVSGST | 1.15 ± 0.14
RAHIPWKRCFV | -1.06 ± 1.9
RAKVNSRGCEESFF | -0.007 ± 0.73
RALLTGWTMSRPGLFIIATS | -0.273 ± 1.1
RAVTSWYVVRWFIRYNTSNA | inactive
RAVYSGVSMD | inactive
RAYFGCFQGFILLFSYLMC | inactive
RCCLNTVPSAFTGYKNPTVK | inactive
RCDRVCGWGDRFNAGSGYRW | inactive
